± gives the standard deviation.
Assay: protein stability index of a GFP-peptide fusion (GPS, HEK-293T) (PSI 1-6); higher = more stable
[1] = treatment: DMSO, c terminus: a fixed tail appended
[2] = treatment: MLN4924 1 uM, 8 h, c terminus: a fixed tail appended
[3] = treatment: DMSO, c terminus: native
[4] = treatment: MLN4924 1 uM, 8 h, c terminus: native
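Note: 24-mer peptide tiles fused after GFP, lentivirally expressed, FACS-sorted into six equal bins by GFP/DsRed ratio, decoded by Illumina sequencing, PSI is the read-weighted mean bin number.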

Row | Sequence | protein stability index [1] | protein stability index [2] | protein stability index [3] | protein stability index [4]
1 | NIKANDYANAVLQALSNVPPLRNY [USP39] | 2.18 ± 0.21 | 2.03 ± 0.32 |  | 
2 | CPPPPGPAAAPEGDWARLLEQMGA [ZBED3] | 3.53 ± 0.18 | 3.58 ± 0.84 |  | 
3 | PDITSSRYRGLPAPGPSPADKKRS [WAS] | 5.22 ± 0.097 | 5.271 ± 0.036 |  | 
4 | YEAIAKHNQVEAAWLEGRIRQEFD [TRIM35] | 3.9 ± 0.25 | 3.85 ± 0.18 |  | 
5 | VLRREISELRTKVQEQQKQLQDQD [FBXO28] | 4.73 ± 0.17 | 4.66 ± 0.23 |  | 
6 | DSAQFTKALAIILHLLYLLEKVEC [FEM1A] | 2.22 ± 0.33 | 2.11 ± 0.34 |  | 
7 | SGDRDENSFSLNSSISSSARRTTR [MAP2] | 5.05 ± 0.28 | 4.97 ± 0.32 |  | 
8 | TPFQSVPPTVSQTPVIAATPVPTI [BRD3] | 4.06 ± 0.24 | 3.94 ± 0.13 |  | 
9 | TVEQGCQILDSLSYMRNENVISEL [FBXO39] | 3.5 ± 0.43 | 3.41 ± 0.42 |  | 
10 | FVQDVLFVLQAIGIPGWGFSGWIS [SCAMP3] | 3.33 ± 0.35 | 2.73 ± 0.33 |  | 
11 | THLLMGLASGRIILILEGGYNLTS [HDAC6] | 2.89 ± 0.46 | 3.02 ± 0.58 |  | 
12 | GEKEEEDKDDEEKPKIEDVGSDEE [HSP90AB1] | 5.6 ± 0.24 | 5.77 ± 0.12 |  | 
13 | PHQCSECGRAFSRKSLLVVHQRTH [ZNF649] | 4.93 ± 0.2 | 5.12 ± 0.16 |  | 
14 | SSTQLNELLLFAVGFIMAGTPMAL [OR3A1] | 3.05 ± 0.3 | 3.04 ± 0.61 |  | 
15 | ATLPGIFMLLLIFFAFLHCWLNAF [SOAT2] | 2.46 ± 0.5 | 2.3 ± 0.36 |  | 
16 | IREEGRCSSSDDDTDVDMEGLRRR [PBXIP1] | 5.37 ± 0.25 | 5.42 ± 0.36 |  | 
17 | LLDHNANIDIQNGFLLRYAVIKSN [ASB7] | 2.53 ± 0.17 | 2.14 ± 0.2 |  | 
18 | ARLNGSVASYILASHNGISYKDLD [TENT5D] | 2.85 ± 0.47 | 2.68 ± 0.21 |  | 
19 | ASLKSEAESLKGKLEEERAKLHDV [GNB5] | 5.32 ± 0.11 | 5.26 ± 0.32 |  | 
20 | HVIHIIDFGLAKEYIDPETKKHIP [CSNK1G1] | 1.99 ± 0.29 | 2.16 ± 0.087 |  | 
21 | LPFKPFAIILPILLNIRVATKYV [MIA2] |  |  | 2.42 ± 0.81 | 3.36 ± 1.6
22 | EEEEEEEAAGVVVEEELFHQQGTP [LMNB1] | 5.38 ± 0.31 | 5.47 ± 0.41 |  | 
23 | PGTSFKDSTKTAFHRSQTLSYRNG [EFHC1] | 3.68 ± 0.1 | 3.89 ± 0.11 |  | 

Row | Sequence | protein stability index [1] | protein stability index [2] | protein stability index [3] | protein stability index [4]
24 | SSRFSSSRLLGSASPSSSVRLGSF [PRPH] | 2.82 ± 0.24 | 2.83 ± 0.18 |  | 
25 | GGSHPSRPNSRHTPSFSGDSSSSC [VDR] | 4.75 ± 0.28 | 4.73 ± 0.19 |  | 
26 | YKVNTPMLQSFINYCLLFLIYTVM [SLC35F2] | 2.35 ± 0.8 | 2.44 ± 0.38 |  | 
27 | PRAKSKVWKYFGFDTNAEGCILQW [ZBED1] | 2.3 ± 0.59 | 2.38 ± 0.081 |  | 
28 | DSEQVPQALRRLRPRTRKVKSVSP [NCF4] | 5.21 ± 0.25 | 5.11 ± 0.24 |  | 
29 | LPEQVDIIISEPMGYMLFNERMLE [CARM1] | 2.24 ± 0.69 | 2.12 ± 0.42 |  | 
30 | TLVNFHLKRSIPQVSPVRRAPSRR [CPN1] | 2.88 ± 0.28 | 3.13 ± 0.23 |  | 
31 | NMAGVTFRKFIPKCSKIVIDFDSI [DCTD] | 2.5 ± 0.39 | 1.95 ± 0.32 |  | 
32 | RVKLTKRSGHTQTDYINASFMDGY [PTPN9] | 2.75 ± 0.14 | 2.87 ± 0.27 |  | 
33 | AYVLSKYQYFVCPVEYRSDVNSFV [CDS1] | 2.6 ± 0.46 | 2.68 ± 0.75 |  | 
34 | MLENYSNLVSVGYQAGKPDALTKL [ZNF649] | 2.72 ± 0.2 | 2.83 ± 0.18 |  | 
35 | EMWADQLTSLKDLYKSLKTLSAEL [CEP70] | 2.3 ± 0.18 | 2.1 ± 0.25 |  | 
36 | VSNDSHTWVTVKNGSGDMIFEGNS [CPXM2] | 3.79 ± 0.16 | 4.32 ± 0.3 |  | 
37 | GQKLVVPGLLGSMALSNHYRSEDL [FBXO3] | 2.92 ± 0.21 | 3.17 ± 0.35 |  | 
38 | VCTDTDRWSLISLSNKNGKNVELK [TENT5C] | 3.46 ± 0.27 | 3.57 ± 0.17 |  | 
39 | VCALCPVLGAHRGHPVGLALEAAV [TRIM14] | 2.57 ± 0.34 | 2.37 ± 0.6 |  | 
40 | TNNNIKQRLIKKVQEAVLDKWVND [GOLPH3] | 2.37 ± 0.4 | 2.36 ± 0.31 |  | 
41 | STCHAYSNTRDRYGRSWESYSSCG [RBMY1A1] | 2.29 ± 0.16 | 2.47 ± 0.37 |  | 
42 | TSEGTLELQQRNPKAERLRWSPAQ [ZNF232] | 4.27 ± 0.19 | 4.25 ± 0.15 |  | 
43 | DGENVFTGQSKIYSYMSPNKCSGM [KMT5A] | 3.3 ± 0.29 | 3.3 ± 0.14 |  | 
44 | AAANCHFHCIETLVTTGANVNETD [ANKRD44] | 3.99 ± 0.22 | 4.08 ± 0.15 |  | 
45 | RTLPNASTVDNIRSIFGNAVSREL [MLH1] | 3.55 ± 0.12 | 3.54 ± 0.17 |  | 
46 | SAIYKWITDNFCYFRHADPTWQNS [FOXJ1] |  | 2.57 ± 0.4 |  | 

Row | Sequence | protein stability index [1] | protein stability index [2] | protein stability index [3] | protein stability index [4]
47 | NPIIYSFRNPDVQSAIWRMLTGRR [OR3A1] | 2.51 ± 0.41 | 2.58 ± 0.36 |  | 
48 | GGQITDEMAEQLMTLAYDNGINLF [KCNAB2] | 2.79 ± 0.17 | 2.9 ± 0.35 |  | 
49 | CSMSATFTLNFFRSGIQFGSWGSF [CLCN6] | 3.01 ± 0.57 | 2.75 ± 0.14 |  | 
50 | SLGYVRSQFLKLKTSVEKANAQIQ [CD207] | 2.63 ± 0.53 | 2.81 ± 0.27 |  | 
51 | KSMGLKKKAFVWARNIGFKVNSKK [ACSBG2] | 2.91 ± 0.3 | 2.83 ± 0.37 |  | 
52 | IKDKEAPLHVAQTRLYLRSHRPNM [TEKT4] | 3.23 ± 0.25 | 3.23 ± 0.25 |  | 
53 | ILLSKEPDGVWAYNRGEHPIFVNS [SMAD6] | 2.2 ± 0.19 | 2.44 ± 0.2 |  | 
54 | PHFLRVPCWKITLFVIVPVLGPLV [MOG] | 2.9 ± 0.65 | 2.85 ± 0.3 |  | 
55 | TSPVYRGSSSGPSSPARVSTTPR [MTUS2] |  |  | 4.45 ± 0.2 | 4.48 ± 0.13
56 | RDKNWQTPLHVAAANKAVKCAEVI [ANKRD44] | 3.69 ± 0.38 | 3.7 ± 0.19 |  | 
57 | PDRGSPEYRQRRERNNIAVRKSRD [CEBPD] | 5.03 ± 0.37 | 5.35 ± 0.12 |  | 
58 | LNLGSGTGYLSTMVGLILGPFGIN [PCMTD1] | 3.33 ± 0.73 | 2.87 ± 0.49 |  | 
59 | LSVDPEEEREEGPPRIPQADQWKS [RHOBTB1] | 5.28 ± 0.075 | 5.26 ± 0.24 |  | 
60 | LFYDDYYEDGEVEEEADSCFGDDE [CDC34] | 4.79 ± 0.17 | 4.78 ± 0.3 |  | 
61 | PIETLIRDMLLSGSSFNWPYMAIQ [NR2F2] | 3.34 ± 0.18 | 2.95 ± 0.62 |  | 
62 | LSQALNGLSDRAKEAKEFLVQLRN [TRIM9] | 3.29 ± 0.41 | 3.26 ± 0.32 |  | 
63 | TYSKFQPQSPDFLDITNPKAVLEN [UFD1] | 3.92 ± 0.18 | 4.24 ± 0.076 |  | 
64 | RAPACSPEAAAAQLRATAGSLILP [FCHO1] | 3.12 ± 0.38 | 3.15 ± 0.34 |  | 
65 | SSNLLDLKNPFFRYTGTTPSPPPG [CARM1] | 3.29 ± 0.29 | 3.42 ± 0.15 |  | 
66 | IEQDAVVPSEWLSSVYKQQWFAML [GMCL1] | 2.26 ± 0.098 | 2.78 ± 0.3 |  | 
67 | LNEMRDQYEKMAEKNRKDAEDWFF [KRT17] | 4.14 ± 0.2 | 4.1 ± 0.19 |  | 
68 | QGRFCTIFRSYSRGAQGVILVYDI [RAB40A] | 3.15 ± 0.35 | 2.99 ± 0.43 |  | 
69 | GSEKVTMQNLNDRLASYLDKVRAL [KRT16] | 2.88 ± 0.2 | 2.89 ± 0.25 |  | 

Row | Sequence | protein stability index [1] | protein stability index [2] | protein stability index [3] | protein stability index [4]
70 | GKKQVPCFASMLTKKLHFFPKSN [CASP6] |  |  | 2.82 ± 0.27 | 3.51 ± 0.69
71 | PPSGSQPLTSTQGLEHAAAGGSSG [FBF1] | 5.3 ± 0.2 | 5.44 ± 0.15 |  | 
72 | VAACTKEIDTQGRHLAHSMLQRAI [C10orf62] | 2.86 ± 0.41 | 2.9 ± 0.14 |  | 
73 | LEAHCVEFLTKHLRADNAFMLLTQ [BTBD1] | 2.55 ± 0.76 | 2.81 ± 0.47 |  | 
74 | IYQGEDLPHPKSMLQATAEANNLA [ATL3] | 4.25 ± 0.23 | 4.332 ± 0.041 |  | 
75 | KVMKQPRCGVPDVAQFVLTEGNPR [MMP1] | 3.32 ± 0.1 | 3.38 ± 0.17 |  | 
76 | YVALQTKGALQKKPLYVAFSFMYI [KCNK9] | 3.44 ± 0.89 | 2.85 ± 0.8 |  | 
77 | QQLNDYEQLLDVKLALDMEISAYR [LMNB1] | 2.95 ± 0.32 | 2.9 ± 0.31 |  | 
78 | TGVYPRCLHASQWPVCAACPVRKF [BRF1] | 2.49 ± 0.17 | 2.45 ± 0.24 |  | 
79 | DTISTIKSVAWEGGACPAFLPSLR [NCF4] | 2.92 ± 0.3 | 2.9 ± 0.38 |  | 
80 | LRALGAQIEKTTNREACRDLSGRR [SDE2] | 4.21 ± 0.15 | 4.48 ± 0.26 |  | 
81 | LEKESDTPLQQVSIEEILEEQRVE [LSM1] | 5.26 ± 0.26 | 5.53 ± 0.098 |  | 
82 | EPVLLFGKIRRGAYALPAGLSAPA [TRIB3] | 2.76 ± 0.19 | 3.01 ± 0.26 |  | 
83 | NITVQKKVSQWWERLTKQEKRPLF [HACD3] | 2.65 ± 0.18 | 2.91 ± 0.13 |  | 
84 | PMDSTMDDAVAGDFALINKLDIQC [ATE1] | 4.4 ± 0.26 | 4.29 ± 0.24 |  | 
85 | CKICGRTFFPVALKKHGPICQKTA [ZC2HC1A] | 3.58 ± 0.063 | 3.92 ± 0.38 |  | 
86 | LLFDMTTHPVTNTTEKQRLVKKLQ [GOLPH3L] | 2.61 ± 0.26 | 2.83 ± 0.41 |  | 
87 | AEISARTMQSMFAKNFHVKAVMKT [PTPRD] | 2.56 ± 0.32 | 2.67 ± 0.39 |  | 
88 | THEVMGPKKKHLDYLIQATNETNV [SNAP91] | 3.85 ± 0.32 | 3.69 ± 0.64 |  | 
89 | LTFLTKQEILLAHRRFCELLPQEQ [CIB1] | 2.4 ± 0.44 | 2.55 ± 0.19 |  | 

From the supplement of paper PMC10567573
